The record followed here is paper PMC6013494, “Dual recognition of H3K4me3 and H3K27me3 by a plant histone reader SHL” (Nature Communications, 2018).

As usually defined, the Kd is the equilibrium constant for the complex coming apart. Read a high Kd as weaker binding. What is called stoichiometry N is the number of molecules, sites or subunits per partner or assembly.

Sequences and labels used below:
B1: SHL from Populus trichocarpa (PtSHL), wild type (natural protein)
chain: SMAKAKAPRRTLDSYTVKPINKTVKPGDCVLMRPSDPSKPSYVAKIERIESDGRGPNVRVRVRWYYRPEESIGGRRQFHGSKEVFLSDHYDTQSADTIEGKCMVHSFKNYTKLDAVGNDDFFCRFEYNSSTGAFNPDRVAVYCKCEMPYNPDDLMVQCEGCSDWFHPACIEMSAEEAKRLDHFFCENCSSEGQKKLQNSHNTRQSDAKAETKRRRR

Numbering of substitutions follows the chain as printed. Entries after “also recorded” stand apart in the source; their conditions may differ. No end group written: not given here. Me3 = trimethyl-lysine; Me2 = dimethyl-lysine

The target of one assay is PtSHL. As to the kind of experiment: ITC, PtSHL (wild type) with histone peptides. More on the design: species or system Populus trichocarpa. The following applies: Microcal PEAQ-ITC, 20 °C, 100 mM NaCl, 20 mM Tris-HCl, pH 8.0, peptide with additional C-terminal tyrosine, PtSHL WT, NDB, no detectable binding. The procedure:
(§1) The full-length AtSHL was cloned into a pET-Sumo vector to fuse a hexahistidine-sumo tag to the target protein. The plasmids were transformed into Escherichia coli strain BL21(DE3) RIL (Stratagene). The protein expression was induced by adding IPTG to a final concentration of 0.2 mM upon the OD600 of cell culture reaching to 0.7, followed by overnight induction at 20 °C. The recombinant protein was purified using a HisTrap column (GE Healthcare). The hexahistidine-sumo tag was cleaved by ulp1 protease and removed by a second step HisTrap column. The AtSHL protein was further purified using a Superdex G200 column (GE Healcare). The PtSHL was cloned, expressed, and purified using the same strategy as AtSHL. All mutant versions of SHL were generated using a PCR based method and expressed and purified using the same protocol as wild type SHL protein. The peptides were purchased from the GL Biochem Company (Shanghai).
(§2) The interaction between SHL and histone peptides was monitored on a Microcal PEAQ-ITC instrument (Malvern) at 20 °C. An additional artificial tyrosine residue was added to the C-terminus of the peptide in the ITC experiment for accurately measuring the concentration of peptide by OD280. The protein was dialyzed against a buffer of 100 mM NaCl and 20 mM Tris-HCl, pH 8.0 for 3 h and the lyophilized peptides were dissolved into the same buffer. […]
A general note: In ITC the heat of successive injections is recorded.

The next assay deals with PtSHL D90A. As to the kind of experiment: ITC, PtSHL D90A. More on the design: species or system Populus trichocarpa. The conditions noted are these: 20 °C, pH 8.0, NDB, no detectable binding. The procedure:
as §1, §2

For a further assay, the target named is PtSHL H88A. As to the kind of experiment: ITC, PtSHL H88A. On the set-up: species or system Populus trichocarpa. The following applies: 20 °C, pH 8.0, NDB, no detectable binding. The procedure: as §1, §2
The subject of assay [1] is full-length AtSHL. Briefly: Histone peptide pulldown, full-length AtSHL. Format: binding, Arabidopsis thaliana. The following applies: biotinylated histone peptides, 2 μg GST-tagged SHL, 50 mM Tris-HCl, pH 8.0, 300 mM NaCl, 3 h at 4 °C; anti-GST immunoblot. The procedure:
The […] biotinylated histone peptides were first incubated with 62.5 μl magnetic streptavidin bead slurry (NEB) pre-washed with 1 ml peptide binding buffer (50 mM Tris-HCl, pH 8.0, 300 mM NaCl, 0.1% Nonidet P-40) for 1 h at 4 °C. The peptide-bound beads were washed twice with 1 ml of peptide binding buffer and then incubated with 2 μg GST-tagged SHL proteins in the peptide binding buffer for 3 h at 4 °C. After washing three times with binding buffer, protein-bead complex was boiled in 1XSDS loading buffer (50 mM Tris-HCl, pH 6.8, 2% sodium dodecyl sulfate, 0.01% bromophenol blue, 2 mM dithiothreitol and 2 mM β-mercaptoethanol), subjected to SDS-PAGE gel, and detected with an anti-GST antibody (CAB4169, Thermo Fisher, 1:3000). The raw images of the western blots can be found in Supplementary Fig. 6a.
In general terms: A western blot detects proteins with antibodies after separation by electrophoresis.

For assay [2], the system named is full-length AtSHL. As to the kind of experiment: Histone peptide microarray, full-length AtSHL. Format: binding, Arabidopsis thaliana. The following applies: 500 nM GST-tagged SHL, 50 mM HEPES, pH 7.5, 50 mM NaCl, RT, 2 h; anti-GST, fluorescence 635 nm; average of three replicate spots. The procedure:
Peptide microarray assay was performed as following a previous study. Specifically, the peptide array slide was blocked with blocking solution (1 × PBS, 0.05% Tween-20 pH 7.4, 1% BSA) at 4 °C overnight. After washing three times with 1 ml TTBS buffer (10 mM Tris-HCl, pH 7.5, 150 mM NaCl, 0.05% Tween-20), the slide was incubated with 500 nM GST-tagged recombinant SHL in 1 ml binding buffer (50 mM HEPES, pH 7.5, 50 mM NaCl, 5% glycerol, 0.4% BSA, 2 mM DTT) at RT for 2 h. The slide was then washed with TTBS three times and incubated with an anti-GST antibody (Thermo Fisher, CAB4169, 1:3000 dilution) in TBS with 1% BSA for 1 h at RT. After washing with TTBS three times, the slide was incubated with an anti-rabbit IRDye 650 secondary antibody (LI-COR, P/N 926-65020, 1:5000 dilution) in 1 ml TBS buffer with 1% BSA for 1 h. The slide was washed with TTBS three times, dried by centrifugation, and imaged at dual wavelengths of 532 and 635 nm on Axon GenePix 4000B (Molecular Devices). The laser power was set to 100%, with automatic gain adjustment (0.05% saturation tolerance) for dual photomultipliers. […] Signal intensities were quantified by GenePix Pro 6.1 software (Molecular Devices). […] For each peptide species, an average was calculated from three replicate spots. […]

Another assay addresses PtSHL Y41A. As to the kind of experiment: ITC, PtSHL Y41A. More on the design: species or system Populus trichocarpa. The conditions noted are these: 20 °C, pH 8.0, NDB, no detectable binding. The procedure: as §1, §2
A further assay addresses PtSHL W63A. As to the kind of experiment: ITC, PtSHL W63A. More on the design: species or system Populus trichocarpa. The conditions noted are these: 20 °C, pH 8.0, NDB, no detectable binding. The procedure:
as §1, §2

In the next assay the target is T1, PtSHL + H3K4me3 (Populus trichocarpa, UniProt B9H0V2).
T1 sequence (B9H0V2 1-215): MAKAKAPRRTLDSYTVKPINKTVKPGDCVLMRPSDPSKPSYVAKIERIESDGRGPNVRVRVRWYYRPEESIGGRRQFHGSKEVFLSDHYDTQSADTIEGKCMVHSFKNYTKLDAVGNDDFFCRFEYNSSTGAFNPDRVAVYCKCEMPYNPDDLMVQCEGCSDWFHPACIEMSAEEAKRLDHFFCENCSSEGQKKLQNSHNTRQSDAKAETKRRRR
Briefly: Competitive ITC, PtSHL pre-saturated with 2-fold excess H3(1-15)K4me3. The following applies: ITC binding stoichiometry. The procedure:
To further investigate the binding mechanism of H3K4me3 and H3K27me3 by the two domains of SHL, we performed competitive binding assays.
The interaction between SHL and histone peptides was monitored on a Microcal PEAQ-ITC instrument (Malvern) at 20 °C. An additional artificial tyrosine residue was added to the C-terminus of the peptide in the ITC experiment for accurately measuring the concentration of peptide by OD280. The protein was dialyzed against a buffer of 100 mM NaCl and 20 mM Tris-HCl, pH 8.0 for 3 h and the lyophilized peptides were dissolved into the same buffer. The titration data were fit using the program Origin 7.0.

The target in the next assay is PtSHL Y65A. As to the kind of experiment: ITC, PtSHL Y65A. More on the design: species or system Populus trichocarpa. The following applies: 20 °C, pH 8.0, NDB, no detectable binding. The procedure:
as §1, §2

Assay [3] addresses SHL from Populus trichocarpa (PtSHL), wild type (Populus trichocarpa). As to the kind of experiment: ITC; PtSHL pre-saturated with 2-fold excess H3(20-36)K27me3 peptide, titrated by H3(1-15)K4me3 peptide; 20 °C, 100 mM NaCl, 20 mM Tris-HCl pH 8.0.
The target is the same in assay [4]. Briefly: ITC; Microcal PEAQ-ITC, 20 °C; 100 mM NaCl, 20 mM Tris-HCl pH 8.0; protein titrated by peptide.
For assay [5] the target is unchanged. As to the kind of experiment: ITC; PtSHL pre-saturated with 2-fold excess H3(1-15)K4me3 peptide, titrated by H3(20-36)K27me3 peptide; 20 °C, 100 mM NaCl, 20 mM Tris-HCl pH 8.0.
For assay [6], the target named is Arabidopsis SHORT LIFE (AtSHL), full length, tag removed (Arabidopsis) (UniProt Q9FEN9). Briefly: ITC; Microcal PEAQ-ITC, 20 °C; 100 mM NaCl, 20 mM Tris-HCl pH 8.0; protein titrated by peptide.
Sequence of Arabidopsis SHORT LIFE (AtSHL), full length, tag removed (Arabidopsis) (Q9FEN9 whole entry): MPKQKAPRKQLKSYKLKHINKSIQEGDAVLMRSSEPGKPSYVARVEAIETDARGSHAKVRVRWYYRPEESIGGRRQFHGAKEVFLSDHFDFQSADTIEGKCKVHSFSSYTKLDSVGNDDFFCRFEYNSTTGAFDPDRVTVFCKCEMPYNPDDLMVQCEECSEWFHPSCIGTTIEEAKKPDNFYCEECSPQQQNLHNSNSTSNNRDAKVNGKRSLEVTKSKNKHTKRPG
Assay [7] concerns the target B1. Briefly: ITC.
In a further assay the target is T2, PtSHL Y148A (Populus trichocarpa).
T2 chain: T1 sequence (B9H0V2 1-215) with Y148A
As to the kind of experiment: ITC.

The target of a further assay is T3, PtSHL Q156A (Populus trichocarpa).
T3 chain: T1 sequence (B9H0V2 1-215) with Q156A
As to the kind of experiment: ITC.

The target in the next assay is T4, H3K4me1 (Arabidopsis thaliana).
T4 chain: ARTK(Me)QTARKSTGGKAY
As to the kind of experiment: ITC.

In the next assay the target is T5, H3K4me2 (Arabidopsis thaliana).
T5 chain: ARTK(Me2)QTARKSTGGKAY
Briefly: ITC.

In the case of `CC(C)C[C@H](N)C(=O)N[C@@H](C)C(=O)N[C@H](C(=O)N[C@@H](CCCCN)C(=O)N[C@@H](C)C(=O)N[C@@H](C)C(=O)N[C@@H](CCCNC(=N)N)C(=O)N[C@@H](CCCC[N+](C)(C)C)C(=O)N[C@@H](CO)C(=O)N[C@@H](C)C(=O)N1CCC[C@H]1C(=O)N[C@@H](C)C(=O)N[C@H](C(=O)NCC(=O)NCC(=O)N[C@H](C(=O)N[C@@H](CCCCN)C(=O)N[C@@H](Cc1ccc(O)cc1)C(=O)O)C(C)C)[C@@H](C)O)[C@@H](C)O` [H3K27me3], the Kd is 21.3 µM at PtSHL; “NDB and abolished” at PtSHL D90A; “NDB and abolished” on PtSHL H88A; “NDB and abolished” on PtSHL Y41A; “NDB and abolished” on PtSHL W63A; “NDB and abolished” at PtSHL Y65A. Moreover, in the assay with full-length AtSHL [1], the “binding in histone peptide pulldown” value is recorded as “capable of binding”. Moreover, the “binding on histone peptide microarray” value with full-length AtSHL [2] is “preferentially binds; also recorded: strong binding affinity”. At PtSHL + H3K4me3, the N-value is given as 0.818.

As to “H3(1-15)K4me3 peptide with an additional C-terminal tyrosine (ITC)”, the Kd amounted to 27.6 µM in [3] and 20.6 µM in [4].

In [4], “H3(1-35)K4me3K27me3 peptide with an additional C-terminal tyrosine (ITC)” gave a Kd of 16.9 µM and a stoichiometry N of 1.17.

“H3(20-36)K27me3 peptide with an additional C-terminal tyrosine (ITC)”: the Kd in assay [5] is 18.7 µM; in assay [4], 21.3 µM; in assay [6], 15.1 µM.

Regarding “H3K27me1 peptide with an additional C-terminal tyrosine (ITC)”, the dissociation constant (Kd) in [6] was found to be 78.3 µM.

Molecule “H3K27me2 peptide with an additional C-terminal tyrosine (ITC)” registered a Kd in assay [6] of 30.8 µM.

As for LATKAARK(Me)SAPATGGVKY [H3K27me1 peptide with an additional C-terminal tyrosine (ITC)], the Kd in [7] is 58.1 µM.

As to ARTK(Me3)QTARKSTGGKAY [H3(1-15)K4me3 peptide with an additional C-terminal tyrosine (ITC)], the figures for the dissociation constant Kd with PtSHL Y148A and in the assay with PtSHL Q156A were 44 µM and 66.1 µM, respectively.

For the molecule LATKAARK(Me2)SAPATGGVKY [H3K27me2 peptide with an additional C-terminal tyrosine (ITC)], binding in assay [7] was characterised by a dissociation constant (Kd) of 28.9 µM.

For the molecule B1, the results for the equilibrium dissociation constant (Kd) in the assay with H3K4me1 and with H3K4me2 were 67.1 µM and 23.9 µM, respectively.
